Among the data in patent publication US20150275215, “NEUTRALIZING RNA APTAMERS AGAINST PDGFBETA AND USES THEREOF IN THE THERAPY AND DIAGNOSIS OF HYPERPROLIFERATIVE DISEASES” (CONSIGLIO NAZIONALE DELLE RICERCHE, published 2015) are binding result and Kd values, retold here.

In general, Kd refers to a measure of binding affinity in units of concentration. A higher Kd goes with a looser complex.

Data set [1] addresses PDGFRalpha extracellular domain (EC-PDGFRα) (Homo sapiens, UniProt P16234 P16234:24-528). The data set can be described thus: filter; no saturable binding detectable up to 1000 nM. The note with it: tags: soluble, R&D Systems; label: 5'-32P.
Data set [2] concerns the target PDGFRbeta extracellular domain (EC-PDGFRβ) (Homo sapiens, UniProt P09619 P09619:33-532). The data set can be described thus: filter; 1 nM radiolabeled RNA, 1-1000 nM protein; unrelated aptamer background subtracted. The note with it: tags: soluble, R&D Systems; label: 5'-32P.

PDGFRbeta extracellular domain (EC-PDGFRβ), sequence (P09619 33-532, one chain of several): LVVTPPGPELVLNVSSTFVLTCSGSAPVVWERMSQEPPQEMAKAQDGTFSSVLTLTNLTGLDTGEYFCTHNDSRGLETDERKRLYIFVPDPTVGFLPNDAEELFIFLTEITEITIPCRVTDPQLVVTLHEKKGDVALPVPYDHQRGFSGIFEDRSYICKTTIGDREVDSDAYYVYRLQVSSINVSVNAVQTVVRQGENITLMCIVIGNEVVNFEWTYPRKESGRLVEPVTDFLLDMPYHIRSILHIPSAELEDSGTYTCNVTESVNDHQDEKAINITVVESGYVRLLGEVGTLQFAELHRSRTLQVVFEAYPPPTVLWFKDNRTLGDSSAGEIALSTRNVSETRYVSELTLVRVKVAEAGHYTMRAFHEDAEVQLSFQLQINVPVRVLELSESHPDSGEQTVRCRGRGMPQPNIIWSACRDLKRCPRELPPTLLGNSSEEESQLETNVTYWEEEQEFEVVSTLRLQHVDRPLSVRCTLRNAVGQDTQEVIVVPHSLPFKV
PDGFRalpha extracellular domain (EC-PDGFRα), sequence (P16234 24-528, one chain of several): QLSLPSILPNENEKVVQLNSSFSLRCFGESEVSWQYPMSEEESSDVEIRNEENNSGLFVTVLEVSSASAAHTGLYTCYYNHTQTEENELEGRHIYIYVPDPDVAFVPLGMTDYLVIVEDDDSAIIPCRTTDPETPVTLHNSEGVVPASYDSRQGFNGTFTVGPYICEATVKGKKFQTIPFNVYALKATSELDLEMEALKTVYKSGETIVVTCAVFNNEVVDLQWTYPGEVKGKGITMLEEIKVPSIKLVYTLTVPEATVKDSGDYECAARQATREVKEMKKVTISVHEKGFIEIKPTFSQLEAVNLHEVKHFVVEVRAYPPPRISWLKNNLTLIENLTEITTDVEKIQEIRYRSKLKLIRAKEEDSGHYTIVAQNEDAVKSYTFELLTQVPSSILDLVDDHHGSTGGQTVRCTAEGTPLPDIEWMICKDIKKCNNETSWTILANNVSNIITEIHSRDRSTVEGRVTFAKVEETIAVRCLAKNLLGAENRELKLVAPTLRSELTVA

B1: Gint4.T (ssRNA)
RNA: UGUCGUGGGGCAUCGAGUAAAUGCAAUUCGACA
modifications: 2'-F all pyrimidines
As for B1, the binding result in data set [1] is “no binding”. In data set [2], this molecule registered a Kd of 0.0096 µM.

B2: Gint4 (ssRNA)
RNA: GGGAGACAAGAAUAAACGCUCAAUCAUAAGAGGUAUCACAUUGUCGUGGGGCAUCGAGUAAAUGCAAUUCGACAGGAGGCUCACAACAGGC
modifications: 2'-F all pyrimidines
B2: binding in data set [2] was put at a Kd of 0.0104 µM.
